What was measured:
[1] = biological target: COMA (K. lactis, full length: Ame1, Ctf19, Mcm21, Okp1) (Kluyveromyces lactis) (UniProt Q6CUE5); test: native MS; nanoflow electrospray of intact assemblies in 200 mM ammonium acetate pH 6.7-7.3 or 7.4; higher micromolar concentrations (COMA ~3 or ~6 uM; COMA-Nkp1-Nkp2 ~3 uM)
[2] = biological target: COMA (K. lactis, full length: Ame1, Ctf19, Mcm21, Okp1) (Kluyveromyces lactis) (UniProt Q6CUE5); test: SEC-MALS; COMA injected at ~43 uM (COMA dimer) on Superdex 200 10/300; max. dimeric COMA concentration in the principal peak 2.4 uM
[3] = test system: S. cerevisiae clones; test: dilution-series growth assay on solid YPD agar with benomyl; format: cell-based; settings: 20 μg/ml benomyl
Description: For vegetative growth assays on solid agar, we serially diluted our mitotically cycling S. cerevisiae clone suspensions to an absorbance at 600 nm (A600) of 0.4, in 96‐well plates (Nunc; Thermo Fisher Scientific). From this suspension, we sequentially fourfold diluted suspensions with minimal synthetic complete medium row‐wise (Fig 8A and C; Appendix Fig S9A, B and E). We spotted S. cerevisiae suspensions with a sterilized 48‐head metal pinner (V & P Scientific, Inc.). We prepared our solid YPD agar that contained benomyl with a final concentration of 20 μg/ml benomyl (Sigma‐Aldrich). We did our growth experiments with S. cerevisiae clones that encode Mad1 fused to an auxin‐inducible degron (Appendix Fig S9E) on solid yeast‐extract peptone (YEP) agar with 2% (w/v) raffinose and 2% (w/v) galactose, and 1 mM of the synthetic auxin analogue 1‐napthylic acetic acid (NAA; Carl Roth), similarly as described (Nishimura et al, 2009). To prepare S. cerevisiae extracts for our Western blot that we show an image in Appendix Fig S9F, we grew cultures in YEP with 2% (w/v) raffinose and 2% (w/v) galactose to an A600 of 0.3. After the addition of NAA to a concentration of 1 mM, we collected cells from cultures after specific time points (Appendix Fig S9F) by centrifugation.

[4] = biological target: COMA-MIND (K. lactis COMA bound with MIND-C1) (Kluyveromyces lactis) (UniProt Q6CUE5); test: native MS; nanoflow electrospray of intact assemblies in 200 mM ammonium acetate pH 6.7-7.3 or 7.4; higher micromolar concentrations (COMA ~3 or ~6 uM; COMA-Nkp1-Nkp2 ~3 uM)
[5] = biological target: T1, full-length Ctf19-Mcm21 (K. lactis) (Kluyveromyces lactis, UniProt Q6CRN7 1-270; Q6CVQ9 1-293); test: MST
T1 chain 1: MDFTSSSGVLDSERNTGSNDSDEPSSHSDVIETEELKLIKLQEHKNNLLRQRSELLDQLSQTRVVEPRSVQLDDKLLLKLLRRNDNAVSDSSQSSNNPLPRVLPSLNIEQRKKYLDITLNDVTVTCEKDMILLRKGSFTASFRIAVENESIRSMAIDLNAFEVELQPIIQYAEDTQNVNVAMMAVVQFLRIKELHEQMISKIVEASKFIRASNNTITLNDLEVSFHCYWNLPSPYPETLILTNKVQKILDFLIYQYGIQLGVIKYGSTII
T1 chain 2: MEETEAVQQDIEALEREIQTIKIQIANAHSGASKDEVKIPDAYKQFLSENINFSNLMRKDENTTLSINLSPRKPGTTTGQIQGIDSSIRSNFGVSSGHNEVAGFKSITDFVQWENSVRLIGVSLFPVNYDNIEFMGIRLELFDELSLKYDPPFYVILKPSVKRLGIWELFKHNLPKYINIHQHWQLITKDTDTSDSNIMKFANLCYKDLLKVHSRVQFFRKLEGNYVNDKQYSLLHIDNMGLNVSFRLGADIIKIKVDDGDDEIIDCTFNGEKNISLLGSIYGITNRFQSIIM

[6] = biological target: T2, full-length Ctf19-Mcm21 (K. lactis) (Kluyveromyces lactis, UniProt Q6CRN7 1-270; Q6CVQ9 1-293); test: MST; Ctf19-Mcm21 labelled with NT-647-NHS on lysines, ~27 nM; dilution series of peptide; 22-25°C; ITC/MST buffer; three dilution series; settings: both partners purified
T2 construct: Ctf19 of Kluyveromyces lactis; Mcm21 of Kluyveromyces lactis; for microscale thermophoresis it was labelled on lysine side chains with the red dye NT-647-NHS; also stands for the Ctf19-Mcm21 subassembly of COMA in nanoflow mass spectra; source: E. coli BL21 Rosetta 2(DE3)pLysS, co-expressed, purified
T2 sequence (looked up) 1: T1 chain 1
T2 sequence (looked up) 2: T1 chain 2

[7] = biological target: T3, COMA (K. lactis, full length: Ame1, Ctf19, Mcm21, Okp1) (Kluyveromyces lactis, UniProt Q6CUE5 1-292; Q6CRN7 1-270; Q6CVQ9 1-293; Q6CJY0 1-383); test: native MS; nanoflow spectra and tandem mode with collision-induced dissociation in the gas phase (argon); subassemblies stripped of subunits; settings: both partners purified
T3 construct: Ame1 of Kluyveromyces lactis; Ctf19 of Kluyveromyces lactis; Mcm21 of Kluyveromyces lactis; Okp1 of Kluyveromyces lactis; copies: + + +
T3 sequence (looked up) 1: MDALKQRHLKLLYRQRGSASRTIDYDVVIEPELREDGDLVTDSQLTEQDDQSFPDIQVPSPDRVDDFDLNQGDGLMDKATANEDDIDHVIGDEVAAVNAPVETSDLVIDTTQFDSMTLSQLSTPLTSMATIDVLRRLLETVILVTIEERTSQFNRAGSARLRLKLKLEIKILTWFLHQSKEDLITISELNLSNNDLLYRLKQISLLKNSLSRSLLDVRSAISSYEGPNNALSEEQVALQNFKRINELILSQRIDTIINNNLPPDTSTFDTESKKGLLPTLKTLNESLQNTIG
T3 sequence (looked up) 2: T1 chain 1
T3 sequence (looked up) 3: T1 chain 2
T3 sequence (looked up) 4: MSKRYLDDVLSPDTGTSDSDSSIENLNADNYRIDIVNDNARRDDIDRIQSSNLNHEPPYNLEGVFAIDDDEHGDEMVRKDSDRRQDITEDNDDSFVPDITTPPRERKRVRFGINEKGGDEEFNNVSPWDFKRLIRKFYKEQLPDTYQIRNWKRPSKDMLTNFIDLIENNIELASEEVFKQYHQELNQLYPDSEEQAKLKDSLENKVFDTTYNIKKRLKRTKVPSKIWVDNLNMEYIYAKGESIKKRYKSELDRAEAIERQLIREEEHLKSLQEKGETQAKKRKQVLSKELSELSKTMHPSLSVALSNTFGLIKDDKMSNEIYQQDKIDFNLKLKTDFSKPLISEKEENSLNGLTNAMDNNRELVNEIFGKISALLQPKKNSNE

[8] = biological target: T4, Okp1 (K. lactis, full length) (Kluyveromyces lactis, UniProt Q6CJY0 1-383); test: as above; settings: both partners purified
T4 construct: Okp1 (CENP-Q orthologue) of Kluyveromyces lactis; also called Okp1^CENP-Q; outer kinetochore protein 1; source: E. coli BL21 Rosetta 2(DE3)pLysS, co-expressed as COMA, purified
T4 sequence (looked up): T3 sequence (looked up) 4

[9] = biological target: T5, Ame1-Okp1 (K. lactis, full length) (Kluyveromyces lactis, UniProt Q6CUE5 1-292; Q6CJY0 1-383); test: as above; settings: both partners purified
T5 construct: Ame1 of Kluyveromyces lactis; Okp1 of Kluyveromyces lactis; stands as the Ame1-Okp1 part of COMA; also called Okp1-Ame1; source: E. coli BL21 Rosetta 2(DE3)pLysS, co-expressed with Ctf19 and Mcm21 versions
T5 sequence (looked up) 1: T3 sequence (looked up) 1
T5 sequence (looked up) 2: T3 sequence (looked up) 4

[10] = biological target: the molecule itself; test: native MS; nanoflow electrospray of intact assemblies in 200 mM ammonium acetate pH 6.7-7.3 or 7.4; higher micromolar concentrations (COMA ~3 or ~6 uM; COMA-Nkp1-Nkp2 ~3 uM)

COMA (K. lactis, full length: Ame1, Ctf19, Mcm21, Okp1) (from UniProt Q6CUE5 1-292; Q6CRN7 1-270; Q6CVQ9 1-293; Q6CJY0 1-383) (complex)
stoichiometry N [1]: 2
stoichiometry N [2]: 2

CCCCNC(=O)n1c(NC(=O)OC)nc2ccccc21 [benomyl]
benomyl sensitivity (growth) ([3]; Okp1_cmΔ and Okp1_cmΔnnΔ mutants, solid YPD agar, elevated temperature): sensitive to benomyl
growth in the presence of benomyl ([3]; Okp1_cmΔ cnn1Δ mutant compared with Okp1_cmΔ or cnn1Δ, 37°C): reduced growth

COMA-MIND (K. lactis COMA bound with MIND-C1) (from UniProt Q6CUE5 1-292; Q6CRN7 1-270; Q6CVQ9 1-293; Q6CJY0 1-383) (complex)
stoichiometry N [4]: 2

SNEIYQQDKIAANLKLKTDF (synthetic peptide; terminal chemistry not stated) [D328A-F329A]
Kd [5]: 64 µM

SNEIYQQDKIDANLKLKTDF (synthetic peptide; terminal chemistry not stated) [F329A]
Kd [5]: 25.3 µM

SNEIYQQDKIDFNLPLKTDF (synthetic peptide; terminal chemistry not stated) [K332P]
Kd [5]: 9.75 µM

B1: Okp1 peptide variant N330A (peptide, UniProt Q6CJY0 318-337, looked up)
peptide: SNEIYQQDKIDFALKLKTDF
notes: source: synthetic peptide (Protein Chemistry core facility, IMP, Vienna)
binding result [6]: binds
Kd [5]: 5.51 µM

B2: Nkp1 (K. lactis) (natural protein, Kluyveromyces lactis, UniProt Q6CPR4 1-210, looked up)
chain: MDLESEIIQLVRQNIRPKFPSLNDEQQARLDNALKYDVNYDILKKELVEYIDDWKRNEYYDVLTNIGDLQRLDLGNMLNGDGVSFPKLHSDLANLPRFRLIDNENEMDQSLLHKYDSLRTRLIEKCRAIELIRSATNTDVNYQDINSMLSVVELRQWRDEIQMEWKELAQNLELILKTWPDLTEEKRSKLLQLIDSSSLKSILHIKDNIE
notes: Nkp1 of Kluyveromyces lactis; also called non-essential kinetochore protein 1; HisNkp1; source: E. coli BL21 Rosetta 2(DE3)pLysS, purified
binding result [7]: binds
binding result [8]: binds
binding result [9]: binds

B3: COMA-Nkp1-Nkp2 (K. lactis, full length) (complex, Kluyveromyces lactis)
chain 1: T3 sequence (looked up) 1
chain 2: T1 chain 1
chain 3: T1 chain 2
chain 4: T3 sequence (looked up) 4
chain 5: B2 chain
chain 6: MLHEVLYKHLDGILVSRLYTEDQFVDLFSRTIPESNTVIASQLYKSYEENDQRIIEKIDKLIDNKLSLIRVELEREQIEDSISLEEVNKLLHSIDDMLQQHLNQLNIELDNKNTKLLKYAMELSDIEAIDTSMYDNVAKLITDMETNQPSS
notes: Ame1 of Kluyveromyces lactis; Ctf19 of Kluyveromyces lactis; Mcm21 of Kluyveromyces lactis; N-terminal SNA residual; Okp1 of Kluyveromyces lactis; Nkp1 of Kluyveromyces lactis; Nkp2 of Kluyveromyces lactis; source: E. coli BL21 Rosetta 2(DE3)pLysS, reconstituted, purified (SEC); not shown: polyhistidine, N-terminal, cleaved; copies: + + + + +
stoichiometry N [10]: 2
